The values below come from patent US8084213, “Selection” (Domantis Limited).

For data set [1], the target named is scFv(31IJ1)-(KEAAA)6-scArc-HA (Phage P22 / human scFv?). Description: co-capture on protein A, protein L, fluorescein; with anti-HA 3F10. As to conditions: tags: N-terminal scFv fusion, C-terminal HA; chain copies: 2 scArc per operator (inferred). How it is done:
In the solution expression experiments 3 µl of 1.7 nM PCR-amplified pIE7aA, pIE7a2A, pIE7a3A, pIE7a4A, pIE7aA-scFv(31IJ1), pIE7a2A-scFv(31 Ul), pIE7a3A-scFv (31IJ1) or pIE7a4A-scFv(31IJ1) template in 0.2 mg/ml tRNA is added to 25 µl EcoPro T7 in vitro translation mix (Novagen), supplemented with 0.75 µl of 100 mM oxidized glutathione (Sigma) and 0.25 µl […] 3F10 αHA mAb (Roche). Each reactions is split into three 9 µl aliquots. Two of the three in vitro translation aliquots of pIE7aA-scFv(31IJ1), pIE7a2A-scFv(31IJ1), pIE7a3A-scFv(31IJ1) or pIE-7a4A-scFv(31IJ1) are immediately combined with the aliquots of pIE7aA, pIE7a2A, pIE7a3A or pIE7a4A expression reactions respectively, one before and the other after the four-hour incubation at 25° C.
During the translation reaction the streptavidin-coated PCR tubes, cut from Strep Thermofast 96-well plates (Abgene), are first incubated at room temperature for three hours with 50 µl of at least 40 nM biotinylated protein A (Sigma), protein L (Pierce) fluorescein (Molecular Probes) of BSA (Sigma) in PBS. The coating buffer is thereafter removed and any remaining free biotin-binding sites are blocked with a 15 min pulse of 50 µg/ml biotinylated BSA in PBS. The pre-coated wells are thereafter three times washed with PBS and then filled with 100 µl of binding buffer C+ (100 mM KCl, 20 mM Tris, 5 mM MgCl2, 0.05% Tween 20, 0.05 mM EDTA, 1% BSA). […]

The target of data set [2] is Vh(DOM1h-10-27)-scArc-HA (Phage P22 / human Vh). The data set is described as follows: DNA co-captured on protein A and human TNF receptor, not BSA. As to conditions: tags: N-terminal Vh dAb fusion, C-terminal HA; chain copies: 2 scArc per operator (inferred). Here is the method: The functional activity of the V_H(DOM1h-10-27)-scArc fusion protein can be assessed by PCR amplification of the DNA co-captured during the V_H-dependent immunoprecipitation of the in vitro translation reaction product. As in the case of $V_\kappa$-scArc fusion constructs, 1 µl of 1.7 nM template in 0.2 mg/ml tRNA is added to 25 µl EcoPro T7 in vitro translation mix (Novagen), supplemented with 0.75 µl of 100 mM oxidized glutathione (Sigma), and incubated at 25° C. for four hours. During the translation reaction the streptavidin-coated PCR tubes, cut from Strep Thermofast 96-well plates (Abgene), are first incubated at room temperature for three hours with 50 µl of at least 40 nM biotinylated target protein in PBS. The coating buffer is thereafter removed and any remaining free biotin-binding sites are blocked with a 15 min pulse of 50 µg/ml biotinylated BSA in PBS. The precoated wells are thereafter three times washed with PBS and then filled with 100 µl of binding buffer C+ (100 mM KCl, 20 mM Tris, 5 mM MgCl_2, 0.05% Tween 20, 0.05 mM EDTA, 1% BSA). Upon completion of the translation reaction the products are diluted in Buffer C+ and applied to the pre-coated and blocked PCR tubes, allowed to bind for 30 min at room temperature and washed 4 times with 150 µl of Buffer C+. […]

B1: Arc operator, one copy, on linear genetic element (dsDNA)
DNA 1: ATGATAGAAGCACTCTACTAT
DNA 2: ATAGTAGAGTGCTTCTATCAT
On to B1, for which the binding result in data set [1] and in data set [2] was “binds” throughout.
